Measurements taken from patent US20050196380A1, “Method for delivering therapeutic proteins to the intradermal compartment” (priority 2004, published 2005).

What was measured:
[1] = Bolus ID vs SC insulin in diabetic Yucatan Mini swine, serum insulin levels; type: in vivo; conditions: for PK profiles for regular and fast-acting insulin by the ID route / uptake by ID route compared with Lispro given by the traditional SC route: SS3_34
Procedure: Lilly Lispro is regarded as fast acting insulin, and has a slightly altered protein structure relative to native human insulin. Hoechst regular insulin, maintains the native human insulin protein structure that is chemically similar, but has slower uptake than Lispro when administered by the traditional SC route. Both insulin types were administered in bolus via the ID route to determine if any differences in uptake would be discernable by this route. 5 U of either insulin type were administered to the ID space using dermal access microdevice design SS3—34.
Thus, 5 U of Lilly Lispro fast-acting insulin was administered using dermal access design SS3—34. Additional microdevices of the same needle array configuration were fabricated whereby exposed needle lengths of the microdevice array, were lengthened to include arrays with needles lengths of 2 and 3 mm. The average total dermal thickness in Yucatan Mini swine ranges from 1.5-2.5 mm. Therefore insulin deposition is expected to be into the dermis, approximately at the dermal/SC interface, and below the dermis and within the SC for 1 mm, 2 mm, and 3 mm length needles respectively. Bolus insulin administration was as described in Example 6.2.
Bolus delivery of Lantus long-acting insulin was delivered via the ID route. Lantus is an insulin solution that forms microprecipitates at the administration site upon injection. […] Lantus insulin (10 U dose, 100 μL) was administered to diabetic Yucatan Mini pigs using the dermal access design SS3—34 and by the standard SC method as previously described. […] More importantly this supports the fact that the biological clearance mechanism in the body is not appreciably changed by the administration route, nor is the way in which that the drug substance is utilized. This is extremely important for drugs compounds that have a long circulating half-life (examples would be large soluble receptor compounds or other antibodies for cancer treatment, or chemically modified species such as PEGylated drugs).

[2] = ID vs SC infusion of PTH, weight normalized PTH plasma levels; type: in vivo
Procedure: An ID administration experiment was conducted using a peptide drug entity: human parathyroid hormone 1-34 (PTH). […] Control SC infusion was through a standard 31-gauge needle inserted into the SC space lateral to the skin using a “pinch-up” technique. ID infusion was through dermal access microdevice design SSB1—30 (a stainless steel 30-gauge needle bent at the tip at a 90° angle such that the available length for skin penetration was 1-2 mm). The needle outlet (the tip of the needle) was at a depth of 1.7-2.0 mm in the skin when the needle was inserted. A 0.64 mg/mL PTH solution was infused at a rate of 75 μL/hr. Flow rate was controlled via a Harvard syringe pump.

[3] = Slow-infusion ID vs SC insulin delivery in swine, serum insulin pharmacokinetics; type: in vivo
Procedure: Pharmacokinetic parameters of the delivered substances in accordance with the methods of the invention may be determined using methods known to one skilled in the art. An exemplary pharmacokinetic analysis of infusion data of a substance, e.g., insulin, delivered in accordance with the methods of the invention is carried out as follows. Stepwise nonlinear least-squares regression is used to analyze the insulin concentration-time data from each individual animal. Initially, an empirical biexponential equation is fit to the insulin concentration-time data for the negative control condition. This analysis assumes first-order release of residual insulin, and recovers parameters for the first-order rate constant for release, the residual insulin concentration at the release site, a lag time for release, and a first-order rate constant for elimination of insulin from the systemic circulation. The parameters recovered in this phase of the analysis are of no intrinsic importance, but merely account for the fraction of circulating insulin derived from endogenous sources.
The second step of the analysis involves fitting an explicit compartmental model to the insulin concentration-time data during and after subcutaneous or intradermal infusion. The scheme upon which the mathematical model is based is shown in the upper part of FIG. 1. Infusion of insulin proceeds from t=−0 to t=240-min; after a lag-time (tlag,2) absorption from the infusion site is mediated by a first-order process governed by the absorption rate constant ka. Insulin absorbes into the systemic circulation, distributes into an apparent volume V contaminated by an unknown fractional bioavailability F, and is eliminated according to a first-order rate constant K. The fitting routine recovered estimates of tlag,2, ka, V/F, and K; parameters associated with the disposition of endogenous insulin (CR, tlag,1, kR), which are recovered in the first step of the analysis, are treated as constants. Parameter estimates are reported as mean±SD. The significance of differences in specific parameters between the two different modes of insulin administration (subcutaneous versus intradermal infusion) are assessed with the paired Student's t-test.

blood glucose [4] = experiment: Slow-infusion ID insulin delivery in swine, blood glucose response; conditions: ID infusion 2 U/hr, relative to negative controls and SC infusion
Excerpt: The distal end of the microneedle was placed into the plastic catheter and cemented in place with epoxy resin to form a depth-limiting hub. The needle outlet was positioned approximately 1 mm beyond the epoxy hub, thus limiting penetration of the needle outlet into the skin to approximately 1 mm, which corresponds to the depth of the intradermal space in swine. The catheter was attached to a MiniMed 507 insulin pump for control of fluid delivery. The distal end of the microneedle was placed into the plastic catheter and cemented in place with epoxy resin to form a death-limiting hub. The needle outlet was positioned approximately 1 mm beyond the epoxy hub, thus limiting penetration of the needle outlet into the skin to approximately 1 mm, which corresponds to the depth of the intradermal space in swine. […] The catheter was connected to an-external insulin infusion pump (MiniMed 507) via the integral Luer connection at the catheter outlet. The pump was filled with Humalog™ (Lispro) insulin (Eli Lilly, Indianapolis, Ind.) and the catheter and microneedle were primed with insulin according to the manufacturer's instructions. […] Blood samples were periodically withdrawn and analyzed for serum insulin concentration and blood glucose values.

blood glucose [5] = experiment: Bolus ID vs SC insulin in diabetic Yucatan Mini swine, blood glucose; conditions: bolus 10 U, 100 μL
Procedure: Bolus delivery of Lilly Lispro fast acting insulin was performed using ID and SC bolus administration. The ID injection microdevice was dermal access array design SS3—34.10 international insulin units (U) corresponding to 100 μL volume respectively, were administered to diabetic Yucatan Minis swine. Test animals had been previously been rendered diabetic by chemical ablation of pancreatic islet cells, and were no longer able to secrete insulin. Test animals received their insulin injection either via the microneedle array or via a standard 30 G×½ in. needle inserted laterally into the SC tissue space. Circulating serum insulin levels were detected using a commercial chemiluminescent assay kit (Immulite, Los Angeles, Calif.) and blood glucose values were determined using blood glucose strips. ID injections were accomplished via hand pressure using an analytical microsyringe and were administered over approximately 60 sec.

[6] = Bolus ID delivery of GCSF to Yucatan minipigs, plasma GCSF by ELISA; type: in vivo; conditions: bolus ID relative to SC
Procedure: (§1) Bolus ID delivery of human granulocyte colony stimulating factor (GCSF) (Neupogen) was administered via dermal access microdevice designs SS3—34B (array) or SS1—34 (single needle) to Yucatan minipigs. Delivery rate was controlled via a Harvard syringe pump and was administered over a 1-2.5 min period. […] Administration via IV and SC delivery was performed as controls.

[7] = tested on: white blood cell (WBC) counts; experiment: White blood cell expansion after GCSF administration; type: in vivo, Yucatan minipigs; conditions: ID, SC and IV delivery vs negative control
Procedure: as §1

[8] = 4 hour infusion, 0.64 mg/mL at 75 μL/hr
[9] = bolus 10 U, 100 μL, SS3_34 array vs SC needle

Lantus
"burst" immediately after the ID insulin delivery, relative to SC ([1]; bolus 10 U dose, 100 μL): slightly higher

PTH: peptide drug entity: human parathyroid hormone 1-34
plasma level following termination of infusion, ID ([2]; 2 hour clearance after 4 hour infusion): rapid decrease | area under the curve (AUC) of weight normalized plasma level, ID vs SC [2, 8]: larger area under the curve | peak values at earlier sampling timepoints (15 and 30 min), ID vs SC [2, 8]: higher peak values

Lispro
lag time prior to absorption (tlag) ([3]; ID infusion, 2 U/hr for 4 hr): 0.88 min | rate of uptake from the administration site, ka ([3]; ID infusion, 2 U/hr for 4 hr): 0.0666 min⁻¹ | bioavailability, ID relative to SC administration ([3]; ID relative to SC infusion): approximately 1.3 fold | increase of rate of uptake from the administration site, ID vs SC ([3]; ID relative to SC infusion): approximately 3 fold | lag time prior to absorption (tlag) ([3]; SC infusion): 13.6 min | rate of uptake from the administration site, ka ([3]; SC infusion): 0.0225 min⁻¹ | PK profiles for regular and fast-acting insulin by the ID route ([1]; bolus 5 U): essentially identical | uptake by ID route compared with Lispro given by the traditional SC route ([1]; bolus 5 U): faster uptake | PK profile as microneedle length is increased ([1]; bolus 5 U, needle lengths 1, 2 and 3 mm): more closely resemble SC administration | maximum concentration obtained (Cmax), ID vs SC [1, 9]: higher | time to maximum concentration (Tmax), ID vs SC [1, 9]: shorter | blood glucose drop (blood glucose [4]): improved relative to conventional SC infusion | decrease in blood glucose (BG), ID vs SC (blood glucose [5]): faster and greater changes in BG

Hoechst regular insulin: regular insulin that maintains the native human insulin protein structure
PK profiles for regular and fast-acting insulin by the ID route ([1]; bolus 5 U): essentially identical | uptake by ID route compared with Lispro given by the traditional SC route ([1]; bolus 5 U): faster uptake

B1: GCSF: human granulocyte colony stimulating factor (GCSF) (Neupogen) (protein, chains of the INN, looked up)
chain: MTPLGPASSLPQSFLLKCLEQVRKIQGDGAALQEKLCATYKLCHPEELVLLGHSLGIPWAPLSSCPSQALQLAGCLSQLHSGLFLYQGLLQALEGISPELGPTLDTLQLDVADFATTIWQQMEELGMAPALQPTQGAMPAFASAFQRRAGGVLVASHLQSFLEVSYRVLRHLAQP
bioavailability increase (AUC), ID vs SC [6]: approximately 2 fold | white blood cell expansion (PD outcome) [7]: approximately equal PD outcomes
